Assay: soluble on expression in E. coli; label from the status in PepcDB or PDB records

| Sequence | soluble on expression in E. coli |
| --- | --- |
| MASKRALVILAKGAEEMETVIPVDVMRRAGIKVTVAGLAGKDPVQCSRDVVICPDASLEDAKKEGPYDVVVLPGGNLGAQNLSESAAVKEILKEQENRKGLIAAICAGPTALLAHEIGFGSKVTTHPLARDKMMNGGHYTYSENRVEKDGLILTSRGPGTSFEFALAIVEALNGKEVAAQVKAPLVLKDLEHHHHHH | soluble |
| MRSFPKAKEAFSEGEKVSFGVHRLHVGDAREVLASFPEASVHLVVTSPPYWTLKRYEDTPGQLGHIEDYEAFLDELDRVWREVFRLLVPGGRLVIVVGDVAVARRRFGRHLVFPLHADIQVRCRKLGFDNLNPIIWHKHTNASLEVEGRGVFLGKPYEPGAIIKTEIEYILMQRKPGGYRKPTQEQREKSRLPKEDFHRFFRQIWDDIPGESTKDHPAPFPLELAERLVRMFSFVGDVVLDPFAGTGTTLIAAARWGRRALGVELVPRYAQLAKERFAREVPGFSLEVLDGATHPRR | soluble |
| MISKYLVRDVMKKGVVEVTLDTKLSDVIKTMAKYDISSVVVSDGETFWGIITDTDVLKHYNDLDKTAEEIMTTNPITVSPEAPLEKAVEIMAEKGIHHLYVKSPCEDKIVGVLSSKDIIKLFSDLIE | soluble |
| MSFDGFFLHHIVEELRSELVNGRIQKINQPFEQELVLQIRSNRQSHRLLLSAHPVFGRIQLTQTTFENPAQPSTFIMVLRKYLQGALIESIEQVENDRIVEITVSNKNEIGDHIQATLIIEIMGKHSNILLVDKSSHKILEVIKHVGFSQNSYRTLLPGSTYIAPPSTKSLNPFTIKDEKLFEILQTQELTAKNLQSLFQGLGRDTANELERILVSEKLSAFRNFFNQETKPCLTETSFSPVPFANQVGEPFANLSDLLDTYYKDKAERDRVKQQASELIRRVENELQKNRHKLKKQEKELLATDNAEEFRQKGELLTTFLHQVPNDQDQVILDNYYTNQPIMIALDKALTPNQNAQRYFKRYQKLKEAVKYLTDLIEETKATILYLESVETVLNQAGLEEIAEIREELIQTGFIRRRQREKIQKRKKLEQYLASDGKTIIYVGRNNLQNEELTFKMARKEELWFHAKDIPGSHVVISGNLDPSDAVKTDAAELAAYFSQGRLSNLVQVDMIEVKKLNKPTGGKPGFVTYTGQKTLRVTPDSKKIASMKKS | not soluble |
| MSLKISDVVVELFREAAIYLPEDVKNALEEAYKKESSEISKNTLKAIIENNKIAEETQVPLCQDTGVPIVFLKIGKNINSSEIMKIIEEIKEGVKKATEEVPLRPNVVHPLTRENFKTNVGLNSPFINIEFDESLDREIEIIAFPKGAGSENMSALKMLKPSDGIEGIKNFVLETIANAGGKPCPPIVVGIGIGGTADVALKLAKKALLRKIGERHRDKEIANLEKELLEKINSLGIGAMGLGGDITALDVFIEIAGCHTASLPVGICIQCWADRRAIKRIKLDAKEGGSHHHHHH | soluble |
| MAADLSAYPDRESELTHALAAMRSRLAAAAEAAGRNVGEIELLPITKFFPATDVAILFRLGCRSVGESREQEASAKMAELNRLLAAAELGHSGGVHWHMVGRIQRNKAGSLARWAHTAHSVDSSRLVTALDRAVVAALAEHRRGERLRVYVQVSLDGDGSRGGVDSTTPGAVDRICAQVQESEGLELVGLMGIPPLDWDPDEAFDRLQSEHNRVRAMFPHAIGLSAGMSNDLEVAVKHGSTCVRVGTALLGPRRLRSP | not soluble |
| GSSHHHHHHSSGLVPRGSHMRIVFDIGGSVLVPENPDIDFIKEIAYQLTKVSEDHEVAVVVGGGKLARKYIEVAEKFNSSETFKDFIGIQITRANAMLLIAALREKAYPVVVEDFWEAWKAVQLKKIPVMGGTHPGHTTDAVAALLAEFLKADLLVVITNVDGVYTADPKKDPTAKKIKKMKPEELLEIVGKGIEKAGSSSVIDPLAAKIIARSGIKTIVIGKEDAKDLFRVIKGDHNGTTIEP | soluble |
| MGSDKIHHHHHHMSTTEIVKEAESRHDFALIANWIQPQSKVLDLGCGNGSLLSFLREKLGVKGYGVDKDDDNVLACIGHGVNVIQMDLEAGLAGFDSLSFDYVILSQTLQAMVNTEGVLREMLRVGKQGIITFPNFGYWRHRIQLMAGHMPVSDNIPHQWYNTPNLHLCTIDDFEALCDKMNIRITDRIVINEGNTVSFMPNLFGSLAIYRFEQAAWPVSY | not soluble |
| MSLAATNKRHSTSDKMHFPRSSLQPITTLGKSEFGEVFLAKAQGLEEGVAETLVLVKSLQSKDEQQQLDFRRELEMFGKLNHANVVRLLGLCREAEPHYMVLEYVDLGDLKQFLRISKSKDEKLKSQPLSTKQKVALCTQVALGMEHLSNNRFVHKDLAARNCLVSAQRQVKVSALGLSKDVYNSEYYHFRQAWVPLRWMSPEAILEGDFSTKSDVWAFGVLMWEVFTHGEMPHGGQADDEVLADLQAGKARLPQPEGCPSKLYRLMQRCWALSPKDRPSFSEIASALGDSTVDSKEGHHHHHH | soluble |
| PSLSDEISPQGDGSFLIEGSTNIRDINKGLKWDLPTDGPRTLNGLILEHLEDIPESHLSVRVAGHPMEIVEIEENRIKLVRVYPKK | not soluble |
| MTTNLTNSNCVEEYKENGKTKIRIKPFNALIELYHHQTPTGSIKENLDKLENYVKDVVKAKGLAIPTSGAFSNTRGTWFEVMIAIQSWNYRVKRELNDYLIIKMPNVKTFDFRKIFDNETREKLHQLEKSLLTHKQQVRLITSNPDLLIIRQKDLIKSEYNLPINKLTHENIDVALTLFKDIEGKCKWDSLVAGVGLKTSLRPDRRLQLVHEGNILKSLFAHLKMRYWNPKAEFKYYGASSEPVSKADDDALQTAATHTIVNVNSTPERAVDDIFSLTSFEDIDKMLDQIIKK | soluble |
| EKTVRVVINFKKTQKTIVRVSPHASLQELAPIICSKCEFDPLHTLLLKDYQSQEPLDLTKSLNDLGLRELYAMDVNRE | soluble |
| MGHHHHHHSHMVRKQSPYEDVQKQSRQHDPYKIIEPTPKKYLEGSAYEVIYNHLSYKHEILDKYIETNTAVFWIKKDDIFSVATILRHLGYECLSEMSAIDLCAKKGHFELFYQFVGFSDSCKNRRRVRVKCVLLPNESVDSLSFLYRSANWSEREAYDMLGIVFDKHPYLKRLIMPHDWVGHPLLRSYPLKGDEFAQWYEVDKIFGKEYREVVGKEQRDSARVDEKDTFNFAKIGYEQGKGEELKEVEEKHAFKKIPFVKDLHKIAPTILKKRL | soluble |
| MLQKYSIIVLCCSAVLARVPVAKNCPTGWTWFLRSRGGWCMKVFTEALNQPSAEAKCKAAEAVLAGIQNKEEVAWMSKELTGTMWIGTKRTPPCMNSGVTKQCSQITSYYWTDGSTVGVQGFYWNSGEPNNQGGQGCAKLITSSSVLDDVACTTELTNGYVCGKIATF | not soluble |
| MPKMDVKGIAVTVYSENAMDFISLTDMLRAKDGDFFISDWLRNRNTVEFLGIWEQVHNPNFNYGEFATIRSQAGLNSYKISVKEWVARTHAIGLVAKAGRYGGTYAHKDIAFEFGMWISAEFKIYLIKEFQRLKEAEQQQLGWDIRRNLTKINYRIHTDAIQTNLIPPALTQSQISLIYASEADLLNMALFGKTAKQWREENPNNKGNIRDEANVSQLVCLANLETLNAHFIHQGLPQVERLKILNQTAIHQMKLLLADRSLKQLDGN | not soluble |
| MVHTADNAWRAHIPLMYREDFLCSSGVARWNEEFPRHCVVSQHDRHKTKSVLVILFLIAMRNIKNNRGTFTRIKDRLSSALKSPASLFRRSPEISLREDILSWKKSPHSLAASEYGGSDLLVQFLKQQTSDDYVDFWLESGEYRWTRTKPGRKRDIEAQRIYDKFVYGECPRKIAHLEKMCFVSRQGPTGRDVFICAQAYVGTNFPKDSYKKFLQDPIYLNLLKTVSSGATQLNE | not soluble |
| MGSDKIHHHHHHMDVIIDKNSGYCFGVEFAIQMAEDEMATGEPLFCLGDIVHNSMEVERLAKKGLKIIDREELKKLSDCKVLIRAHGEPPETYQLALENNIELVDASCPVVLKLQNRVKASFDAIDSKDGQIVIYGQEGHAEVIGIAGQTGDKAIVITTEKDLDKIDFEKPVTLYSQTTKSTQGFYKMKDLIEARVAEAGKNVDENFEYNDSICRQVSNREPQLRKFSKEFDVVIFVSGKKSSNGKALYGVCKQENERSYFVENETEIEPSWIRATDNVGICGATSTPMWLMEKVQNYIQAHSWN | not soluble |
| MDSFKVVLEGPAPWGFRLQGGKDFNVPLSISRLTPGGKAAQAGVAVGDWVLNIDGENAGSLTHIEAQNKIRACGERLSLGLSRAQPVQSKPQKVQTSDKQLLRQPVPDASKQRLMEDTEDWRPRPGTGQSRSFRILAHLTGTEFMQDPDEEFMKKSREKYVLELQSPRYTRLRDWHHQRSAHVLNVQS | soluble |
| MKIRSTALVKGFRQSTPYVNAHRGKTMVIMLGGEAVAHNNFGNIINDIALMHSLGIKVVVVYGARPQINQLLEKQDLTTPYHKNIRITDEAALSVVMQAAGQLQLAITARLSMSLNNTPMAGTQLNVVSGNFVIAQPLGVDDGVDYCHSGRIRRIDTDAINRTLDQGSIVLLGPIASSVTGECFNLLSEEVATQLAIKLGADKLIGFCSEQGVIDDNGNAVAELLPIEAEHVIKTLSENHASDSDYNTGTLRFLKGSIAACRAGVPRSHLISYKVDGALIQELFSFDGIGTQVVMASAEQVRQAGIDDIGGILELIHPLEEQGILVRRSREQLEQEIGKFTIIEKDGLIIGCAALYPYSEERKAEMACVAIHPDYRDGNRGLLLLNYMKHRSKSENINQIFVLTTHSLHWFREQGFYEVGVDYLPGAKQGLYNFQRKSKILALDL | not soluble |
| MAHHHHHHMSTSNEEDKWSAISAKKIAPKYRKGYYPNRDIMTPKKKTEKKELTYKNSKIAIGRTKSLRFRRDTVTFATKNINFQHRKKSILSKQKSMAEPKLKKQNTVALKRRKTMSRLNSMKKPPYTIVLNKKKVINMNKGMHPSENRKDKISGTTNTPLAARRMLARSKTKVLVDNETKIFKKENVKMVSSNPFNPIASSVESSRRNELENGKQKKELGTVGSANKRESAQHLSTNADKKKIYHNSVRNKLKSKKEEMFQNIISLTKNMKEKPLKKKYNDQIDPRDLLSVTSNNSSVAVDDDL | not soluble |
| MGSDKIHHHHHHMKLSYVTDSLGHLPFEDMLNFAAKLGIDTLEMTTGGWSPAPHLNLDELLQSSEKRKEFSQALEKRNMTLCALNCSGNPLDPGELGKSHRDITDKTMELAGLLGVKKVIMMSGLPAGGPDDKVPNWITYTVSWPPVLKDILNYQWEDVAIPYWKKLVKKAEACGVGKIALENFSSQLVYNPETLFRLRNAVGPMVGLNLDPSHLLWMGADPIIAARELGSAIHHVHGKDVRIERYLSAVNGLLETKEVTDPANRAWNYVAVGCGQDLQWWKEFFSVVKMMGYEGEVSLEMEDLTMSPEAGIRTSVEALKQTISQ | not soluble |
| RTLELAFSSEAAEVQTRSGVEILGHRINEVRMHRLDNGAALLLDHNPREHIGVVESASIDSDHRGRAIVRFGRSPRAEEILRDVLDGIRKHVSVGYLVHQVEVIGQRDAGPLYRATDWEPIEISIVSIPADPSVGIGRALENLPQD | not soluble |
| MAGSPTCLTLIYILWQLTGSAASGPVKELVGSVGGAVTFPLKSKVKQVDSIVWTFNTTPLVTIQPEGGTIIVTQNRNRERVDFPDGGYSLKLSKLKKNDSGIYYVGIYSSSLQQPSTQEYVLHVYEHLSKPKVTMGLQSNKNGTCVTNLTCCMEHGEEDVIYTWKALGQAANESHNGSILPISWRWGESDMTFICVARNPVSRNFSSPILARKLCEGAADDPDGSGLNDIFEAQKIEWHHHHHHHH | soluble |

Reference: the DeepSol protein solubility set
